Source: paper PMC3656109

Tests used:
[1] = target: KSHV gH (V5 epitope-tagged)/gL complex (Kaposi's sarcoma-associated herpesvirus (KSHV, HHV-8)) (UniProt F5HAK9)
[2] = target: RRV 26-95 gH (V5 epitope-tagged)/gL complex (rhesus monkey rhadinovirus (RRV) strain 26-95)

UniProt F5HAK9, sequence (F5HAK9 whole entry, looked up, one chain of several): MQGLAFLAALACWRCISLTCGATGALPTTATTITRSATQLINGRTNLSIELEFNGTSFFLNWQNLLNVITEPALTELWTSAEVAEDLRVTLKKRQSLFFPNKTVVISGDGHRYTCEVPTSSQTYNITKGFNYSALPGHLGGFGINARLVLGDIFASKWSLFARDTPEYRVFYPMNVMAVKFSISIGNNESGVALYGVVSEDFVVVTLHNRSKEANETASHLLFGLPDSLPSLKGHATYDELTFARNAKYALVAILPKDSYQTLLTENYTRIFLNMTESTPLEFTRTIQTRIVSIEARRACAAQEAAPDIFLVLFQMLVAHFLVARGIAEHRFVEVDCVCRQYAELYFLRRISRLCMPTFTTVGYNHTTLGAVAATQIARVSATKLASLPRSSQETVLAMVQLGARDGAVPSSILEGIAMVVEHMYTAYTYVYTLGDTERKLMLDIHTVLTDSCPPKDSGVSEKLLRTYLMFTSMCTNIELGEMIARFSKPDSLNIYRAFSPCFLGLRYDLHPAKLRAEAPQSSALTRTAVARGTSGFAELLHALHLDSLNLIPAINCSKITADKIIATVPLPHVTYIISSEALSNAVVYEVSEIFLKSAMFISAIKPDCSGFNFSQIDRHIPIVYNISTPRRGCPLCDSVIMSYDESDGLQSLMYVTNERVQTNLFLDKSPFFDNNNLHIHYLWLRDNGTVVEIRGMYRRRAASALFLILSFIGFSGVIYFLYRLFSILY

Molecule: EphA7-Fc (from UniProt Q15375 28-555) (Fc fusion)
- entry of KSHV into rhesus fibroblasts after pre-incubation of the virus with EphA7-Fc (1 to 20 µg/ml; no block at 1 µg/ml, value at 20 µg/ml) [1]: -35%

B1: EphA1-Fc (Fc fusion)
chain: KEVTLMDTSKAQGELGWLLDPPKDGWSEQQQILNGTPLYMYQDCPMQGRRDTDHWLRSNWIYRGEEASRVHVELQFTVRDCKSFPGGAGPLGCKETFNLLYMESDQDVGIQLRRPLFQKVTTVAADQSFTIRDLVSGSVKLNVERCSLGRLTRRGLYLAFHNPGACVALVSVRVFYQRCPETLNGLAQFPDTLPGPAGLVEVAGTCLPHARASPRPSGAPRMHCSPDGEWLVPVGRCHCEPGYEEGGSGEACVACPSGSYRMDMDTPHCLTCPQQSTAESEGATICTCESGHYRAPGEGPQVACTGPPSAPRNLSFSASGTQLSLRWEPPADTGGRQDVRYSVRCSQCQGTAQDGGPCQPCGVGVHFSPGARGLTTPAVHVNGLEPYANYTFNVEAQNGVSGLGSSGHASTSVSISMGHAESLSGLSLRLVKKEPRQLELTWAGSRPRSPGANLTYELHVLNQDEERYQMVLEPRVLLTELQPDTTYIVRVRMLTPLGPGPFSPDHEFRTSPPVSRGLTGGE
- entry of KSHV into rhesus fibroblasts after pre-incubation of the virus with EphA1-Fc (1 to 20 µg/ml; no block at 1 µg/ml, value at 20 µg/ml) [1]: -22%

B2: EphB3-Fc (Fc fusion)
chain: GCRALEETLMDTKWVTSELAWTSHPESGWEEVSGYDEAMNPIRTYQVCNVRESSQNNWLRTGFIWRRDVQRVYVELKFTVRDCNSIPNIPGSCKETFNLFYYEADSDVASASSPFWMENPYVKVDTIAPDESFSRLDAGRVNTKVRSFGPLSKAGFYLAFQDQGACMSLISVRAFYKKCASTTAGFALFPETLTGAEPTSLVIAPGTCIPNAVEVSVPLKLYCNGDGEWMVPVGACTCATGHEPAAKESQCRPCPPGSYKAKQGEGPCLPCPPNSRTTSPAASICTCHNNFYRADSDSADSACTTVPSPPRGVISNVNETSLILEWSEPRDLGGRDDLLYNVICKKCHGAGGASACSRCDDNVEFVPRQLGLTERRVHISHLLAHTRYTFEVQAVNGVSGKSPLPPRYAAVNITTNQAAPSEVPTLRLHSSSGSSLTLSWAPPERPNGVILDYEMKYFEKSEGIASTVTSQMNSVQLDGLRPDARYVVQVRARTVAGYGQYSRPAEFETTSERGSGAQQLQEQLPL
- decrease in nuclear accumulation of the RRV genome in HUVEC four hours post infection (real-time PCR) in the presence of 5 µg/ml EphB3-Fc [2]: 74%
